Molecular target: the molecule itself
Experiment: crystal structure; hanging-drop vapour diffusion, 16-17.8% PEG6000 or PEG3350, 0.1 M MES pH 6.0, 20 °C; space group C2, four molecules (two dimers) in the asymmetric unit

B1: α-ketoisovalerate decarboxylase Kivd^S286T (enzyme, Lactococcus lactis)
chain: MYTVGDYLLDRLHELGIEEIFGVPGDYNLQFLDQIISHKDMKWVGNANELNASYMADGYARTKKAAAFLTTFGVGELSAVNGLAGSYAENLPVVEIVGSPTSKVQNEGKFVHHTLADGDFKHFMKMHEPVTAARTLLTAENATVEIDRVLSALLKERKPVYINLPVDVAAAKAEKPSLPLKKENSTSNTSDQEILNKIQESLKNAKKPIVITGHEIISFGLEKTVTQFISKTKLPITTLNFGKSSVDEALPSFLGIYNGTLSEPNLKEFVESADFILMLGVKLTDTSTGAFTHHLNENKMISLNIDEGKIFNERIQNFDFESLISSLLDLSEIEYKGKYIDKKQEDFVPSNALLSQDRLWQAVENLTQSNETIVAEQGTSFFGASSIFLKSKSHFIGQPLWGSIGYTFPAALGSQIADKESRHLLFIGDGSLQLTVQELGLAIREKINPICFIINNDGYTVEREIHGPNQSYNDIPMWNYSKLPESFGATEDRVVSKIVRTENEFVSVMKEAQADPNRMYWIELILAKEGAPKVLKKMGKLFAEQNKS
notes: α-ketoisovalerate decarboxylase (Kivd) from Lactococcus lactis with the substitution S286T; the structure section names residues up to 548; Stored with 2.5 mM MgSO4 and 0.1 mM ThDP; also called ST; not shown: H6-Ub, N-terminal, cleaved
  stoichiometry N: 4
